Results: patent publication US20110104715

T1: Full-length APLP1 (APP-like protein 1), P51693
T1 chain: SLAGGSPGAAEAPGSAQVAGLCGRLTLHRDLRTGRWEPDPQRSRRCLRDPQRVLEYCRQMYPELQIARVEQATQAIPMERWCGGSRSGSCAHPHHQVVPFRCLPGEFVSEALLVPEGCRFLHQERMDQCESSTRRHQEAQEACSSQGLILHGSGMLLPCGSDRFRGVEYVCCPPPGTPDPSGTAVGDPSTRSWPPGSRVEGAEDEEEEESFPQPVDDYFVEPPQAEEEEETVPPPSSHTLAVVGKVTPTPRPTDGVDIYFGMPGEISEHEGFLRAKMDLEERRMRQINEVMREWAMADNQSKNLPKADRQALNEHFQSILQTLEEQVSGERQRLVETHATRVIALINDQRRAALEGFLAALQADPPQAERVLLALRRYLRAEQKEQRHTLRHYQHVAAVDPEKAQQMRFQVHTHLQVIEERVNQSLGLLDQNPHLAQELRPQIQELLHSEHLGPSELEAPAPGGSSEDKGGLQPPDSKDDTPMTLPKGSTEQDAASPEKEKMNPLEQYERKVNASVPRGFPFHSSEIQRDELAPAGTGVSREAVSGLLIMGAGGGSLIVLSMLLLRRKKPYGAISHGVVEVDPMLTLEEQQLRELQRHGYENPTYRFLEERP

B1: Recombinant caspase-8 (protein)
chain: SESQTLDKVYQMKSKPRGYCLIINNHNFAKAREKVPKLHSIRDRNGTHLDAGALTTTFEELHFEIKPHDDCTVEQIYEILKIYQLMDHSNMDCFICCILSHGDKGIIYGTDGQEAPIYELTSQFTGLKCPSLAGKPKVFFIQACQGDNYQKGIPVETDSEEQPYLEMDLSSPQTRYIPDEADFLLGMATVNNCVSYRNPAEGTWYIQSLCQSLRERCPRGDDILTILTEVNYEVSNKDDKKNMGKQMPQPTFTLRKKLVFPSD
B2: Recombinant caspase-7 (protein)
chain: AKPDRSSFVPSLFSKKKKNVTMRSIKTTRDRVPTYQYNMNFEKLGKCIIINNKNFDKVTGMGVRNGTDKDAEALFKCFRSLGFDVIVYNDCSCAKMQDLLKKASEEDHTNAACFACILLSHGEENVIYGKDGVTPIKDLTAHFRGDRCKTLLEKPKLFFIQACRGTELDDGIQADSGPINDTDANPRYKIPVEADFLFAYSTVPGYYSWRSPGRGSWFVQALCSILEEHGKDLEIMQILTRVNDRVARHFESQSDDPHFHEKKQIPCVVSMLTKELYFSQ
B3: Recombinant caspase-3 (protein)
chain: SGISLDNSYKMDYPEMGLCIIINNKNFHKSTGMTSRSGTDVDAANLRETFRNLKYEVRNKNDLTREEIVELMRDVSKEDHSKRSSFVCVLLSHGEEGIIFGTNGPVDLKKITNFFRGDRCRSLTGKPKLFIIQACRGTELDCGIETDSGVDDDMACHKIPVEADFLYAYSTAPGYYSWRNSKDGSWFIQSLCAMLKQYADKLEFMHILTRVNRKVATEFESFSFDATFHAKKQIPCIVSMLTKELYFYH
B4: Recombinant caspase-6 (protein)
chain: AFYKREMFDPAEKYKMDHRRRGIALIFNHERFFWHLTLPERRGTCADRDNLTRRFSDLGFEVKCFNDLKAEELLLKIHEVSTVSHADADCFVCVFLSHGEGNHIYAYDAKIEIQTLTGLFKGDKCHSLVGKPKIFIIQACRGNQHDVPVIPLDVVDNQTEKLDTNITEVDAASVYTLPAGADFLMCYSVAEGYYSHRETVNGSWYIQDLCEMLGKYGSSLEFTELLTLVNRKVSQRRVDFCKDPSAIGKKQVPCFASMLTKKLHFFPKSN

Assays:
[1] = biological target: APP-C125 (C-terminal 125 amino acids of APP695), P05067
[2] = biological target: T1, Full-length APLP1 (APP-like protein 1), …
[3] = biological target: Full-length APLP2 (APP-like protein 2), Q06481
[4] = biological target: Wild-type human APP695 (β-amyloid precursor protein), P05067
[5] = biological target: APP D664A mutant (APP695), P05067

Full-length APLP2 (APP-like protein 2), Q06481, sequence (Q06481 32-763): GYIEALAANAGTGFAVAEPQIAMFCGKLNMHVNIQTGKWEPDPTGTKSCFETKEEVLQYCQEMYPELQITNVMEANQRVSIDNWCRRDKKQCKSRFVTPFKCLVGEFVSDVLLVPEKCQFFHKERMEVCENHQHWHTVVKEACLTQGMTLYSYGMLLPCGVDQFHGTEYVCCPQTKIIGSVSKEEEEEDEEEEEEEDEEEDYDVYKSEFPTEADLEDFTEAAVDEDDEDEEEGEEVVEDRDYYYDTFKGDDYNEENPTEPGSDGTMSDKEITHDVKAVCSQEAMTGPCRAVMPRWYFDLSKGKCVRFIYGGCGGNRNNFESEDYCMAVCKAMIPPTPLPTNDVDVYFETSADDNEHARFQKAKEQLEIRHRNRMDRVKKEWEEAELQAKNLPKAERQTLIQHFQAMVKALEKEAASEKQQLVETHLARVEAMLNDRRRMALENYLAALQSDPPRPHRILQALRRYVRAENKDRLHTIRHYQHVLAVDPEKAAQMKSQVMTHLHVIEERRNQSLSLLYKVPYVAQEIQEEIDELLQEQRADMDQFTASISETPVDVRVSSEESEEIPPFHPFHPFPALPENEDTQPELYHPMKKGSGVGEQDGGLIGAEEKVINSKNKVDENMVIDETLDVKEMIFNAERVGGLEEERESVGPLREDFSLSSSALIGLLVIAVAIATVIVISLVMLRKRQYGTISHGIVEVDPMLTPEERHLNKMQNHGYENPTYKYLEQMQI

| Protein | in vitro caspase cleavage [1] | in vitro cleavage of 35S-labelled in vitro transcribed/translated protein [2] | in vitro cleavage of 35S-labelled in vitro transcribed/translated protein [3] | generation of an APP-Neo-immunoreactive epitope by recombinant caspase in vitro [4] | in vitro cleavage of 35S-labelled in vitro transcribed/translated protein [4] | generation of an APP-Neo-immunoreactive epitope by recombinant caspase in vitro [5] | generation of an APP-Neo-immunoreactive epitope by recombinant caspase in vitro [2] | generation of an APP-Neo-immunoreactive epitope by recombinant caspase in vitro [3] |
| --- | --- | --- | --- | --- | --- | --- | --- | --- |
| B1 | caspases-3, -6 and -8 are capable of cleaving APP | APLP1, on the other hand, was cleaved in vitro only by caspase-3, not by caspase-6 or -8 | Like APLP1, APLP2 may be cleaved in vitro by caspase-3 only, but with very low efficiency, if at all | an APP-Neo-immunoreactive epitope was detected in immunoblots of in vitro transcribed/translated full length APP that had been incubated in the presence of recombinant caspase-3, but not caspase-7 or -8 | APP can be cleaved by caspases-3 and -6, but not by caspase-8 | APPD664A, did not yield detectable APP-Neo immunoreactive products after incubation with recombinant caspase-3, -7 or -8 | – | – |
| B2 | – | – | – | an APP-Neo-immunoreactive epitope was detected in immunoblots of in vitro transcribed/translated full length APP that had been incubated in the presence of recombinant caspase-3, but not caspase-7 or -8 | – | – | – | – |
| B3 | caspases-3, -6 and -8 are capable of cleaving APP | APLP1, on the other hand, was cleaved in vitro only by caspase-3, not by caspase-6 or -8 | APLP2 may be cleaved in vitro by caspase-3 only, but with very low efficiency, if at all | an APP-Neo-immunoreactive epitope was detected in immunoblots of in vitro transcribed/translated full length APP that had been incubated in the presence of recombinant caspase-3, but not caspase-7 or -8 | APP can be cleaved by caspases-3 and -6, but not by caspase-8 | – | in vitro transcribed/translated APLP1 and APLP2 yielded APP-Neo immunoreactive cleavage products only when incubated in the presence of recombinant caspase-3 | in vitro transcribed/translated APLP1 and APLP2 yielded APP-Neo immunoreactive cleavage products only when incubated in the presence of recombinant caspase-3 |
| B4 | caspases-3, -6 and -8 are capable of cleaving APP | APLP1, on the other hand, was cleaved in vitro only by caspase-3, not by caspase-6 or -8 | Like APLP1, APLP2 may be cleaved in vitro by caspase-3 only, but with very low efficiency, if at all | – | APP can be cleaved by caspases-3 and -6, but not by caspase-8 | – | – | – |
